# Results taken from publication PMC3924328, “Structure of the S100A4/myosin-IIA complex” (BMC Structural Biology, 2013).
# B1: myosin-IIA rod (residues 1102–1960): myosin-IIA rod, residues 1102–1960 (protein, UniProt P35579 1102-1960, looked up, fragment)
# chain: ALKKIRELESQISELQEDLESERASRNKAEKQKRDLGEELEALKTELEDTLDSTAAQQELRSKREQEVNILKKTLEEEAKTHEAQIQEMRQKHSQAVEELAEQLEQTKRVKANLEKAKQTLENERGELANEVKVLLQGKGDSEHKRKKVEAQLQELQVKFNEGERVRTELADKVTKLQVELDNVTGLLSQSDSKSSKLTKDFSALESQLQDTQELLQEENRQKLSLSTKLKQVEDEKNSFREQLEEEEEAKHNLEKQIATLHAQVADMKKKMEDSVGCLETAEEVKRKLQKDLEGLSQRHEEKVAAYDKLEKTKTRLQQELDDLLVDLDHQRQSACNLEKKQKKFDQLLAEEKTISAKYAEERDRAEAEAREKETKALSLARALEEAMEQKAELERLNKQFRTEMEDLMSSKDDVGKSVHELEKSKRALEQQVEEMKTQLEELEDELQATEDAKLRLEVNLQAMKAQFERDLQGRDEQSEEKKKQLVRQVREMEAELEDERKQRSMAVAARKKLEMDLKDLEAHIDSANKNRDEAIKQLRKLQAQMKDCMRELDDTRASREEILAQAKENEKKLKSMEAEMIQLQEELAAAERAKRQAQQERDELADEIANSSGKGALALEEKRRLEARIAQLEEELEEEQGNTELINDRLKKANLQIDQINTDLNLERSHAQKNENARQQLERQNKELKVKLQEMEGTVKSKYKASITALEAKIAQLEEQLDNETKERQAACKQVRRTEKKLKDVLLQVDDERRNAEQYKDQADKASTRLKQLKRQLEEAEEEAQRANASRRKLQRELEDATETADAMNREVSSLKNKLRRGDLPFVVPRRMARKGAGDGSDEEVDGKADGAEAKPAE
# B2: MIIA^1851-1960: C-terminal fragment of the human myosin-IIA heavy chain that corresponds to residues 1851–1960 (protein)
# chain: VDDERRNAEQYKDQADKASTRLKQLKRQLEEAEEEAQRANASRRKLQRELEDATETADAMNREVSSLKNKLRRGDLPFVVPRRMARKGAGDGSDEEVDGKADGAEAKPAE
# Tests used:
# [1] = ref [45]; cited from earlier work
# Excerpt: An interesting feature of the S100A4/myosin-IIA complex is that myosin-IIA residues contributing to the coiled-coil interface also mediate S100A4 binding.
# [2] = Sedimentation equilibrium of MIIA^1851-1960 and S100A4/MIIA^1851-1960 mixtures; assay type: physicochemical, human; settings: 22°C, MIIA^1851-1960 alone, 20 mM Tris pH 7.5, 150 mM KCl, 0.5 mM CaCl2, 1 mM TCEP, 0.02% NaN3, predicted 24,795
# Description: (§1) Sedimentation equilibrium and velocity experiments were conducted at 22°C in a Beckman XL-I analytical ultracentrifuge using a Ti60 rotor and Raleigh interference optics. Wild-type S100A4 and MIIA^1851-1960 were dialyzed into 20 mM Tris pH 7.5, 150 mM KCl, 0.5 mM CaCl2, 1 mM TCEP and 0.02% NaN3 and clarified by ultracentrifugation at 80,000 rpm for 10 minutes at 4°C in TLA 120.2 rotor. Sedimentation equilibrium analysis of MIIA^1851-1960 and S100A4 was conducted in six channel centerpieces by sequentially equilibrating the protein at three concentrations for 24 hr at 12,000, 20,000 and 28,000 rpm and globally analyzing the data using HeteroAnalysis v1.1.44 (James L. Cole and Jeffrey W. Lary). The sedimentation velocity experiments were conducted at 53,000 rpm using double sector centerpieces and analyzed using DCDT + v2.4.0 [57, 58]. The best-fit parameters and their 95% joint confidence intervals are reported. The calculated masses of the wild-type S100A4 and MIIA^1851-1960 monomers are 11,597.3 and 12,397.5 Da, respectively. Values of ν-bar = 0.715 for S100A4/MIIA^851-1960 and 0.735 for S100A4, ρ = 1.0059, μ = 1.00586 cp were calculated using Sednterp v1.06 (Hayes, B., T. Laue & J. Philo, Sedimentation Interpretation Program. 2003, University of New Hampshire) from the amino acid and buffer compositions, respectively.
# [3] = target: T1, S100A4 (Homo sapiens, UniProt P26447); assay: as above; assay type: physicochemical; settings: 22°C
# T1 construct: heteronuclear single quantum coherence spectrum (HSQC) of full-length Ca^2+-S100A4 at 600 MHz; made in house; host or cells: E. coli, M9 medium with 15N NH4Cl (BL21(DE3)* is named for the unlabelled protein)
# T1 sequence (P26447 2-101 limits assumed, one chain of several): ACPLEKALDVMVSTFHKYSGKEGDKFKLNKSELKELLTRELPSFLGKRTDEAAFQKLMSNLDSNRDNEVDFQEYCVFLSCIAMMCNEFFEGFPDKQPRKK
# Description: as §1
# [4] = Circular dichroism: secondary structure and thermal stability; assay type: physicochemical
# Description: MIIA^1851-1960 was dialyzed into 20 mM Tris pH 7.5, 150 mM KCl, 0.5 mM CaCl2, 0.02% NaN3 and clarified by ultracentrifugation at 80,000 rpm for 10 minutes at 4°C in TLA 120.2 rotor. MIIA^1851-1960 (40 μM monomer concentration) was transferred to a 1 mm path-length quartz cuvette and scanned in Jasco J-815 Spectrometer equipped with a PFD-425 temperature controller. Spectra from 190 to 260 nm were obtained at 22°C using a scan speed of 100 nm/minute, a 1 nm bandwidth, and a sensitivity of 100 mdeg. Thermal melt curves were obtained by monitoring ellipticity at 222 nm while the sample temperature was increased from 2 – 85°C in 2°C intervals at a rate of 60°C/h, using a 1 nm bandwidth. The data were fit to a sigmoidal dose–response with a variable slope using Graphpad Prism v5.
# [5] = target: T1, S100A4; assay: Sedimentation velocity of MIIA^1851-1960, S100A4 and S100A4/MIIA^1851-1960 mixtures; assay type: physicochemical; settings: sedimentation velocity, protein alone
# Description: as §1
Molecule,Tm [1],Experimental MW (weight-average molecular mass) [2],Oligomeric state [3],"Reversibility of thermal unfolding ([4]; CD, 222 nm, data not shown)","Transition midpoint (Tm) for unfolding ([4]; CD, ellipticity at 222 nm, 40 μM monomer, 20 mM Tris pH 7.5, 150 mM KCl, 0.5 mM CaCl2, 0.02% NaN3, 2 – 85°C at 60°C/h, average of two independent experiments)","Secondary structure by CD ([4]; far-UV, 190 to 260 nm, 22°C, 40 μM MIIA^1851-1960 monomer, pH 7.5)","Peak 1 S20,w ([5]; 22°C, 53,000 rpm, 20 mM Tris pH 7.5, 150 mM KCl, 0.5 mM CaCl2, 1 mM TCEP, 0.02% NaN3)",Peak 1 MW ([5]; 22°C),S value ([5]; 22°C),"[Peak 1] (green), relative amount of plateau concentrations ([5]; 22°C)"
B1,45 °C,,,,,,,,,
B2,,"25,651 ± 308 Da",we did not detect any monomer,reversible,27 °C,primarily α-helical,1.91 ± 0.01,18.5 ± 0.2 kDa,1.91 S,2.09 ± 0.02
